Data published in US20250340607A1 (UNIVERSITY OF CHICAGO, published 2025).

Molecular target: T1, murine Flt3 (R&D 768-F3-050) (murine, UniProt Q00342 28-544)
T1 construct: Bought recombinant protein coated on the ELISA plate; also called receptor for Flt3L; recombinant CD135
T1 sequence (looked up): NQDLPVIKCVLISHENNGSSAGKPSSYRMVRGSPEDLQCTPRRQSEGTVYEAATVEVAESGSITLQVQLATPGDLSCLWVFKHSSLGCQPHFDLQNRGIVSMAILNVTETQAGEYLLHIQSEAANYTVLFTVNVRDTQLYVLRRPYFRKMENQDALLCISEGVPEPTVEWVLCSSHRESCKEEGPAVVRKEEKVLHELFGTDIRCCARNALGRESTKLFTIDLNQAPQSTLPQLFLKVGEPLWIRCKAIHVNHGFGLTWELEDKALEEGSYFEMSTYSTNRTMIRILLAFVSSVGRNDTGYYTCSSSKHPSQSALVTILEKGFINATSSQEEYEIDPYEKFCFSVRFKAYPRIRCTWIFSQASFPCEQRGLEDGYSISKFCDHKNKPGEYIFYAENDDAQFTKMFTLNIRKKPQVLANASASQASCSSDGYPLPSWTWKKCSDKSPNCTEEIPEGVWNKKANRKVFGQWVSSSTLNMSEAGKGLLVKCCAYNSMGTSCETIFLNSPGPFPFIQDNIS
Experiment: ELISA: plate coated with murine Flt3, Flt3L variants titrated, detection with biotinylated anti-Flt3L and avidin-HRP
Description: Protein was cloned, produced, and purified as described in methods. Following purification, bands were confirmed at the expected sizes via SDS-PAGE under reducing conditions (WT at around 30 KDa with multiple bands due to glycosylation differences and Flt3L-MSA at around 75 KDa). Binding of each protein to the receptor for Flt3L (murine Flt3, R&D 768-F3-050) was then confirmed via ELISA. Briefly, high binding plates were coated overnight with 50 μL of 1 nM protein in a Carb/Bicarb buffer pH of 9. The plates were then washed and blocked using R&D blocking buffer before the addition of Flt3L variants at different concentrations in blocking buffer. Detection occurred using biotinylated αFlt3L and subsequent incubation with avidin-HRP. Binding was then visualized via incubation with TMB solution until highest concentrations reached an approximate absorbance of 1 and the reaction was stopped using 2N H2SO4.
High-bind plates (Corning #9018) were coated by incubating overnight at 4 C with 10 nM recombinant CD135 (R&D 768-F3-050) in […] sodium bicarbonate buffer at pH 9.2. Following coating, plates were washed in PBST before blocking in 1× reagent diluent (R&D DY995) for 2 hours at RT. Samples were then diluted to the indicated concentration in triplicate using the same reagent diluent. […] Quantification occurred by reading the absorbance at 450 nm and 570 nm.

B1: wild type murine Flt3L (ligand)
chain: MTPDCYFSHSPISSNFKVKFRELTDHLLKDYPVTVAVNLQDEKHCKALWSLFLAQRWIEQLKTVAGSKMQTLLEDVNTEIHFVTSCTFQPLPECLRFVQTNISHLLKDTCTQLLALKPCIGKACQNFSRCLEVQCQPDSSTLLPPRSPIALEATELPEPRPRQ
notes: Made in HEK293F cells and glycosylated (multiple bands around 30 kDa); also called WT Flt3L; WT; not shown: it was purified over a HisTrap HP column, so it probably carries a His tag
  Kd: 0.16 nM

B2: Flt3L fused to Mouse Serum Albumin (Flt3L-MSA) (other)
chain: MTPDCYFSHSPISSNFKVKFRELTDHLLKDYPVTVAVNLQDEKHCKALWSLFLAQRWIEQLKTVAGSKMQTLLEDVNTEIHFVTSCTFQPLPECLRFVQTNISHLLKDTCTQLLALKPCIGKACQNFSRCLEVQCQPDSSTLLPPRSPIALEATELPEPRPRQGGGGSGGGGSEAHKSEIAHRYNDLGEQHFKGLVLIAFSQYLQKCSYDEHAKLVQEVTDFAKTCVADESAANCDKSLHTLFGDKLCAIPNLRENYGELADCCTKQEPERNECFLQHKDDNPSLPPFERPEAEAMCTSFKENPTTFMGHYLHEVARRHPYFYAPELLYYAEQYNEILTQCCAEADKESCLTPKLDGVKEKALVSSVRQRMKCSSMQKFGERAFKAWAVARLSQTFPNADFAEITKLATDLTKVNKECCHGDLLECADDRAELAKYMCENQATISSKLQTCCDKPLLKKAHCLSEVEHDTMPADLPAIAADFVEDQEVCKNYAEAKDVFLGTFLYEYSRRHPDYSVSLLLRLAKKYEATLEKCCAEANPPACYGTVLAEFQPLVEEPKNLVKTNCDLYEKLGEYGFQNAILVRYTQKAPQVSTPTLVEAARNLGRVGTKCCTLPEDQRLPCVEDYLSAILNRVCLLHEKTPVSEHVTKCCSGSLVERRPCFSALTVDETYVPKEFKAETFTFHSDICTLPEKEKQIKKQTALAELVKHKPKATAEQLKTVMDDFAQFLDTCCKAADKDTCFSTEGPNLVTRCKDALAHHHHHH
notes: also called MSA fused Flt3L; Flt3L-SA
  Kd: 0.16 nM
